Laboratory results: patent US11407988B2, “Composition and uses thereof” (priority 2015, dated 2022)
Several values for one entry are separate records, joined by “and”; a condition that tells them apart may be missing. Identical values can stand only once. Like-named read-outs stand apart in the source and are kept apart here. Where a SMILES comes first, the peptide text is derived from it. [ ]: non-standard residue; d: D form. The star is where a group is joined. Sta = CC(C)C[C@H](N)[C@@H](O)CC(=O)O; Isovaleryl = CC(C)CC(=O)*

Columns and labels:
[1] = system: purified protease of Thermoactinomyces sp. 16 (protease 16); format: biochemical; details: for Inhibition of the enzyme (in words): 10 mM inhibitor
BSA (1%, w/v) [2] = assay: Effect of pH on protease activity of original and recombinant proteinase 16; format: biochemical; details: 0.1M Universal buffer, 30 min, 40 C
[3] = biological target: PrP^Sc, RML scrapie strain (Mus musculus, UniProt P04925); details: pH 7
[4] = biological target: PrP (PrP^C and PrP^Sc) in GT22L lysate, 22 L scrapie strain (Mus musculus, UniProt P04925); details: pH 7
[5] = system: bovine serum albumin (BSA); assay: Protease assay of purification steps of protease 16 (BSA, 0.1M CAPS pH 11.0, 40° C.); format: biochemical
Source text: The secreted protease was purified from cell free supernatant by (NH4)2SO4 (0-60%) fractionation followed by affinity chromatography on Bacitricin-Sepharose 4B according to the quantities shown in Table 3 below.
The first step was ammonium sulphate (0-60%) fractionation. To express the final ammonium sulphate concentration as % ammonium sulphate saturation the Green and Hughes calculations were used. The precipitate obtained after fractionation was suspended in 0.02M HEPES buffer, pH 7.0 and was dialysed against water for 24 h. The second step used was affinity chromatography on bacitracin-Sepharose 4B using a modification of the method of Stepanov and Rudenskaya. Bacitracin-Sepharose 4B was equilibrated with 0.04M Tris/HCL, pH 7.9. Enzyme solution in 0.04M Tris/HCL pH 7.9 was applied to the column and the column was washed with the same buffer to remove all unbound protein. […] The propan-2-ol and NaCl were removed from the protease solution by dialysis.

[6] = biological target: PrP (PrP^C and PrP^Sc) in GTK lysate, chandler scrapie isolate (Mus musculus, UniProt P04925); details: pH 7
BSA (1%, w/v) [7] = assay: Effect of pH and temperature on protease activity
[8] = biological target: pK resistant prion material (PrP^Sc) (Mus musculus, UniProt P04925)
PrP^Sc, BSE strain 301V = PrP^Sc, BSE strain 301V (Mus musculus, UniProt P04925); details: pH 7
[9] = biological target: PrP (PrP^C and PrP^Sc) in N2a22L20 lysate, 22 L scrapie strain (Mus musculus, UniProt P04925); details: pH 7
[10] = 10 mM reagent, purified protease 16

CC(C)C[C@H](NC(=O)[C@@H](O)[C@H](N)Cc1ccccc1)C(=O)O [Bestatin]
Residual protease activity (% of control, no reagent) (10 mM) [1]: 92.6 % of control, no reagent

O=C(O)CN(CCN(CC(=O)O)CC(=O)O)CC(=O)O [Ethylenediaminetetraacetic acid]
Residual protease activity (% of control, no reagent) (10 mM) [1]: 99.6 % of control, no reagent

CC(=O)N[C@@H](CC(C)C)C(=O)N[C@@H](CC(C)C)C(=O)N[C@H](C=O)CCCNC(=N)N [Leupeptin]
Residual protease activity (% of control, no reagent) (10 mM) [1]: 56.8 % of control, no reagent

Cl.NCCc1ccc(S(=O)(=O)F)cc1 [Pefabloc]
Inhibition of the enzyme (in words) [1]: significantly inhibited | Residual protease activity (% of control, no reagent) (10 mM) [1, 10]: 2.9 % of control, no reagent

CC(C)CC(=O)N[C@H](C(=O)N[C@H](C(=O)N[C@@H](CC(C)C)[C@@H](O)CC(=O)N[C@@H](C)C(=O)N[C@@H](CC(C)C)[C@@H](O)CC(=O)O)C(C)C)C(C)C [Pepstatin] (Isovaleryl-VV[Sta]A[Sta]-OH)
Residual protease activity (% of control, no reagent) (10 mM) [1]: 97.6 % of control, no reagent

O=S(=O)(F)Cc1ccccc1 [Phenylmethylsulfonyl fluoride]
Inhibition of the enzyme (in words) [1]: significantly inhibited | Residual protease activity (% of control, no reagent) (10 mM) [1, 10]: 5.4 % of control, no reagent

B1: recombinant Thermitase 16: protease 16 cloned and heterologously expressed in Lactococcus lactis strain MG1363 (L. lactis strain 16), heat activated (protein)
chain: YTPNDPYFSSRQYGPQKIQAPQAWDIAEGSGVKIAIVDTGVQSNHPDLAGKVVGGWDFVDNDSTPQDGNGHGTHCAGIAAAVTNNSTGIAGTAPKASILAVRVLDNSGSGTWTAVANGITYAADQGAKVISLSLGGTVGNSGLQQAVDYAWNKGSVVVAAAGNAGNTAPNYPAYYSNAIAVASTDQNDNKSSFSTYGSWVDVAAPGSSIYSTYPTSTYASLSGTSMATPHVAGVAGLLASQGRSASNIRAAIENTADKISGTGTYWAKGRVNAYKAVQY
Activity levels of original versus recombinant protease at the same pHs (BSA (1%, w/v) [2]): little difference in activity levels | Removal of RML prion strain as detected by western blot [3]: remove all traces of the RML prion strain

B2: protease 16: Thermitase (serine alkaline protease, EC 3.4.21.66) secreted by Thermoactinomyces sp. 16; mature amino acid sequence SEQ ID NO: 1 (protein)
chain: YTPNDPYFSSRQYGPQKIQAPQAWDIAEGSGVKIAIVDTGVQSNHPDLAGKVVGGWDFVDNDSTPQDGNGHGTHCAGIAAAVTNNSTGIAGTAPKASILAVRVLDNSGSGTWTAVANGITYAADQGAKVISLSLGGTVGNSGLQQAVDYAWNKGSVVVAAAGNAGNTAPNYPAYYSNAIAVASTDQNDNKSSFSTYGSWVDVAAPGSSIYSTYPTSTYASLSGTSMATPHVAGVAGLLASQGRSASNIRAAIENTADKISGTGTYWAKGRVNAYKAVQY
modifications: Thermoactinomyces sp. 16
Detectable PrP by western blot, antibody 7A12 [4]: complete loss of detectable PrP | Specific activity (units/mg protein) ([5]; purification step: (NH4)2SO4 (0-60%) fractionation): 0.79 units/mg protein | Specific activity (units/mg protein) ([5]; purification step: Bacitricin-Sepharose 4B): 3.56 units/mg protein | Specific activity (units/mg protein) ([5]; purification step: Cell free supernatant): 0.05 units/mg protein | Detectable PrP by western blot, antibody 7A12 [6]: complete loss of detectable PrP | Activity levels of original versus recombinant protease at the same pHs (BSA (1%, w/v) [2]): little difference in activity levels | pH of optimal activity (BSA (1%, w/v) [7]; BSA in 0.1M Universal buffer, pHs 2.0-12.0): 11.0 and > 8.0 | Temperature of optimal activity (BSA (1%, w/v) [7]; assay at 20-90° C.): 50 °C | Activity at the assay pH of pH 7.0 (BSA (1%, w/v) [7]; pH 7.0): retains significant activity | Detectable prion signal [8]: complete loss of detectable prion signal | Time to degrade the prion [8]: ≤ 15 min | Time to degrade 301V brain material (PrP^Sc, BSE strain 301V): ≤ 15 min | Time to degrade 301V from mouse brain homogenate (PrP^Sc, BSE strain 301V): ≤ 15 min | Detectable PrP by western blot, antibody 7A12 [9]: complete loss of detectable PrP | PrP signal by western blot, antibodies 8H4, 11G5 and GE8 [9]: No signal | Removal of RML prion strain as detected by western blot [3]: remove all traces of the RML prion strain
